Experiments:
[1] = biological target: T1, Vδ1 chain of the γδ TCR on human Vδ1 γδ T cells (human); experiment: flow cytometry binding to Vδ1 γδ T cells, donor ATS006; column head printed 'IC50', unit nM from the chart axis and FIG. 34D
T1 construct: whole, on cells; also called cell surface Vδ1 TCR; Vδ1-positive γδ T cells
Description: (§1) All incubation steps were performed at 4° C. and mAb binding was determined using flow cytometry to measure the median level of fluorescence. Logarithmic four parameter dose-response curves were fitted using GraphPad Prism 9. […] For Vδ1-positive γδ T cell, data is represented as the mean two donors.
(§2) A range of target cells were assayed to determine the specificity and affinity of Vδ1 mAb binding. This included expanded skin-derived Vδ1 γδ T-cells, HEK293T cells, Raji cells, and multiple leukocyte subsets within human primary blood mononuclear cells. Adherent or semi-adherent cells (skin-derived Vδ1 γδ T-cells, HEK293T) were detached from tissue culture flask and resuspended in PBS. Similarly, non-adherent cell types (Raji, PBMC), were harvested and resuspended in PBS. Cells were seeded at a final density of 100,000 cells per well in v-bottom 96-well plates. Cells underwent centrifugation and the cell pellets were resuspended in FcR blocking reagent according to the manufacturer's instructions, and incubated for 20 minutes at 4C prior to a further wash. […] To determine the quantity of mAb bound to the cell surface, the cells were then stained with a murine anti-human IgG secondary antibody, conjugated to APC (dilution: 1:100). For Vδ1 γδ T-cells, HEK293T and Raji, the cells were also stained solely with a viability dye.

[2] = biological target: T2, L1 (DV1-GV4), soluble human Vδ1/Vγ4 γδ TCR heterodimer in leucine zipper format (human); experiment: DELFIA ELISA on antigen L1 (TRDV1/TRGV4), 1/2 dilution series of mAb
T2 construct: Biotinylated in the DELFIA ranking; also called Antigen L1 (TRDV1/TRGV4); human DV1-GV4; not shown: gamma chain: Vγ4 (TRGV4) domain on a TCR constant region, leucine zipper, histidine tag

[3] = biological target: T1, Vδ1 chain of the γδ TCR on human Vδ1 γδ …; experiment: cell-based or functional assay
[4] = biological target: T1, Vδ1 chain of the γδ TCR on human Vδ1 γδ …; experiment: cell-based or functional assay; remark: listed apart in the source
[5] = biological target: T3, Her2 on Her2+ breast cancer cells (SK-BR-3, BT-474) (human, UniProt P04626 23-1255); experiment: flow cytometry on SK-BR-3 cells, anti-human IgG secondary antibody
T3 construct: whole, on cells; also called ErbB-2; CD340

[6] = biological target: T4, Cyno DV1/GV77 antigen, recombinant cynomolgus Vδ1 heterodimer (cynomolgus monkey); experiment: DELFIA ELISA, cyno antigen; heat map cell of the clone
T4 construct: also called cyno TRDV1; Cyno DV1-77; not shown: delta CDR3/J, TCR constant region, zipper and tag; the whole gamma chain GV77

[7] = biological target: T2, L1 (DV1-GV4), soluble human Vδ1/Vγ4 γδ …; experiment: SPR (Reichert 4SPR), antibody on Protein A chip, human Vδ1 antigen as analyte; average of two replicates on two instruments
Excerpt: The binding affinity of the antibodies to target (i.e. the Vδ1 chain of a γδ TCR) is established by SPR analysis using a Reichert 4SPR instrument (Reichert Technologies).
The binding interaction of Vδ1 and the affinity-matured mAbs were modelled according to Langmuir 1:1 binding.

[8] = biological target: T2, L1 (DV1-GV4), soluble human Vδ1/Vγ4 γδ …; experiment: SPR (Reichert 4SPR), antibody on Protein A chip, Vδ1 heterodimer at 6.25-100 nM as analyte
[9] = biological target: T4, Cyno DV1/GV77 antigen, recombinant …; experiment: as above
[10] = biological target: T2, L1 (DV1-GV4), soluble human Vδ1/Vγ4 γδ …; experiment: DELFIA ELISA, 0.4 nM human TRDV1 antigen; heat map cell of the clone
[11] = biological target: T1, Vδ1 chain of the γδ TCR on human Vδ1 γδ …; experiment: flow cytometry binding to Vδ1 γδ T cells, donor TS164; column head printed 'IC50', unit nM from the chart axis and FIG. 34D
Description: as §1, §2

[12] = biological target: T2, L1 (DV1-GV4), soluble human Vδ1/Vγ4 γδ …; experiment: DELFIA, 100 nM biotinylated L1
[13] = biological target: T2, L1 (DV1-GV4), soluble human Vδ1/Vγ4 γδ …; experiment: SPR (Reichert 4SPR), antibody on Protein A chip
[14] = biological target: T4, Cyno DV1/GV77 antigen, recombinant …; experiment: SPR (Reichert 4SPR), antibody on Protein A chip
[15] = biological target: T2, L1 (DV1-GV4), soluble human Vδ1/Vγ4 γδ …; experiment: SPR, captured IgG, human DV1-GV4 flown over
[16] = biological target: T2, L1 (DV1-GV4), soluble human Vδ1/Vγ4 γδ …; experiment: SPR (summary table)
[17] = biological target: T1, Vδ1 chain of the γδ TCR on human Vδ1 γδ …; experiment: flow cytometry on Vδ1 γδ T-cells, anti-human IgG secondary antibody, % cells bound IgG
[18] = biological target: T5, OX40 on activated CD4 T-cells; experiment: flow cytometry on anti-CD3/anti-CD28-activated CD4 T-cells, anti-human IgG secondary antibody, % cells bound IgG
T5 construct: also called OX40+ CD4 T-cells
T5 chain: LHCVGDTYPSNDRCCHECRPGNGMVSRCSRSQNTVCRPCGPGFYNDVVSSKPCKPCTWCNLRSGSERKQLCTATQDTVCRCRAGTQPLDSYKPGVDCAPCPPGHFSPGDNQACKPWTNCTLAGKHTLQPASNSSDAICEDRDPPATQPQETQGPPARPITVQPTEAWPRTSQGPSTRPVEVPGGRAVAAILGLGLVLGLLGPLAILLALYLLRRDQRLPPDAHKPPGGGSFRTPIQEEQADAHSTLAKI
Description: Initially CD4+ T-cells were negatively selected by magnetic sorting from PBMC buffy coats extracted from whole blood. Following activation by anti-CD3/anti-CD28 antibodies conjugated to Dynabeads (Invitrogen), cell surface expression of OX40 was elevated on CD4 T-cells. […] After washing, cells were incubated for a further 15 minutes with anti-human IgG secondary antibodies before washing and fixing. The amount of antibody bound to each cell type was determined by flow cytometry.

[19] = biological target: T2, L1 (DV1-GV4), soluble human Vδ1/Vγ4 γδ …; experiment: SPR (Reichert 4SPR), antibody on Protein A chip, antigen flown over
Description: (§3) Recombinant human Vδ1 heterodimer or human OX40 was flown over the cell at a top concentration of 100 nM.

Recombinant human OX40 = biological target: T6, Recombinant human OX40 (human, UniProt P43489 29-216, limits assumed); experiment: as above
T6 construct: also called CD134
T6 sequence (looked up): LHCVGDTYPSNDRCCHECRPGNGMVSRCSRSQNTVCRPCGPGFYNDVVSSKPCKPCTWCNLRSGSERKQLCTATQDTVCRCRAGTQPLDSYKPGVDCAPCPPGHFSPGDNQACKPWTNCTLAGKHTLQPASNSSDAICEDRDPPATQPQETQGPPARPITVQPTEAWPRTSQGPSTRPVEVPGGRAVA
Description: as §3

[20] = biological target: T7, OX40 on OX40+ NFAT Jurkat cells (human, UniProt P43489); experiment: cell-based or functional assay
T7 sequence (receptor, looked up): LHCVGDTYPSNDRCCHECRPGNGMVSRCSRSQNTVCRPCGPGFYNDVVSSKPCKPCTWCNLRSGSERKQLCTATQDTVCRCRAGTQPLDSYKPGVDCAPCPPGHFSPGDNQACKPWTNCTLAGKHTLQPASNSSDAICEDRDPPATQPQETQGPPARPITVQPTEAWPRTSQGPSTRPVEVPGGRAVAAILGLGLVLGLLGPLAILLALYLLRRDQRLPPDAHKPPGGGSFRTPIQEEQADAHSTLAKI

Recombinant human MSLN = biological target: T8, Recombinant human MSLN (human, UniProt Q13421 296-580, limits assumed); experiment: SPR (Reichert 4SPR), antibody on Protein A chip, antigen flown over; column head prints FAPα
T8 construct: also called mesothelin
Description: (§4) Recombinant human Vδ1 heterodimer or human MSLN was flown over the cell at a top concentration of 100 nM with the following parameters: 180 s association, 480 s dissociation, flowrate 25 μL/min, running buffer PBS+0.05% Tween 20. All experiments were performed at room temperature.

[21] = biological target: T2, L1 (DV1-GV4), soluble human Vδ1/Vγ4 γδ …; experiment: SPR (Reichert 4SPR), antibody on Protein A chip, antigen flown over; remark: listed apart in the source
Description: as §4

[22] = biological target: T1, Vδ1 chain of the γδ TCR on human Vδ1 γδ …; experiment: flow cytometry on Vδ1 γδ T-cells, anti-human IgG secondary antibody, % IgG bound cells
Description: (§5) After washing, cells were incubated for a further 15 minutes with anti-human IgG secondary antibodies before washing and fixing. The amount of antibody bound to each cell type was determined by flow cytometry.

[23] = biological target: T1, Vδ1 chain of the γδ TCR on human Vδ1 γδ …; experiment: flow cytometry on Vδ1 γδ T-cells, anti-human Fc secondary antibody, % IgG bound cells
Description: (§6) After washing, cells were incubated for a further 15 minutes with anti-human Fc secondary antibodies before washing and fixing. The amount of antibody bound to each cell type was determined by flow cytometry.

[24] = biological target: T2, L1 (DV1-GV4), soluble human Vδ1/Vγ4 γδ …; experiment: SPR (Reichert 4SPR), antibody on Protein A chip, antigen flown over; remark: listed apart in the source
Description: (§7) Recombinant human Vδ1 heterodimer or human FAPα was flown over the cell at a concentration of 100 nM with the following parameters: 180 s association, 480 s dissociation, flowrate 25 μL/min, running buffer PBS+0.05% Tween 20. All experiments were performed at room temperature.

Recombinant human FAPα = Recombinant human FAPα (human, UniProt Q12884 26-760); experiment: as above
Description: as §7

[25] = biological target: T9, FAPα on FAPα+ fibroblasts (human, UniProt Q12884 1-760); experiment: flow cytometry on BJ fibroblasts, anti-human Fc secondary antibody, % IgG bound cells
T9 construct: whole, on cells; also called FAPα+ target cells (BJ fibroblasts, human dermal fibroblasts)
Description: as §6

Recombinant human PD-1 = biological target: T10, Recombinant human PD-1 (human, UniProt Q15116 25-167, limits assumed); experiment: SPR (Reichert 4SPR), antibody on Protein A chip, antigen flown over; column head prints TIGIT
T10 construct: also called programmed cell death protein 1
Description: (§8) Recombinant human Vδ1 heterodimer or human PD-1 was flown over the cell at a top concentration of 100 nM.

[26] = biological target: PD-1 on PD-1+ NFAT Jurkat cells (Promega, JA2191) (UniProt Q15116 25-288, limits assumed); experiment: cell-based or functional assay
[27] = biological target: T2, L1 (DV1-GV4), soluble human Vδ1/Vγ4 γδ …; experiment: SPR (Reichert 4SPR), antibody on Protein A chip, antigen flown over; remark: listed apart in the source
Description: as §8

[28] = biological target: T1, Vδ1 chain of the γδ TCR on human Vδ1 γδ …; experiment: flow cytometry on Vδ1 γδ T-cells, anti-human IgG secondary antibody, % cells bound IgG; remark: listed apart in the source
Description: as §5

T4 sequence (delta, as listed by the source limits assumed): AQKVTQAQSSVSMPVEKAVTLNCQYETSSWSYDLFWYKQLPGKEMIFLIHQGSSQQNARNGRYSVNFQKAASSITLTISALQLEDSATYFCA
T1 sequence (A0A1B0GX56 22-115, stated change not applied): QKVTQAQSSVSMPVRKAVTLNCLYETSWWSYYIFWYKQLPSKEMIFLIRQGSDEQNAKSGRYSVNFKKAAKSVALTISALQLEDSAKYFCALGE
T2 sequence (main, as listed by the source): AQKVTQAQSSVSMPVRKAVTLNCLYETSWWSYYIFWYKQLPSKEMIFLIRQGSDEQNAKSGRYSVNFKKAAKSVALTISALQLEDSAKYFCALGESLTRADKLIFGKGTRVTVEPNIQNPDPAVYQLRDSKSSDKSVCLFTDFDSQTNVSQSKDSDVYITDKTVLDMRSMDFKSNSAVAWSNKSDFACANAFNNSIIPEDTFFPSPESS
T8 sequence (Q13421 other isoform, or with tags, fused parts or gaps limits assumed): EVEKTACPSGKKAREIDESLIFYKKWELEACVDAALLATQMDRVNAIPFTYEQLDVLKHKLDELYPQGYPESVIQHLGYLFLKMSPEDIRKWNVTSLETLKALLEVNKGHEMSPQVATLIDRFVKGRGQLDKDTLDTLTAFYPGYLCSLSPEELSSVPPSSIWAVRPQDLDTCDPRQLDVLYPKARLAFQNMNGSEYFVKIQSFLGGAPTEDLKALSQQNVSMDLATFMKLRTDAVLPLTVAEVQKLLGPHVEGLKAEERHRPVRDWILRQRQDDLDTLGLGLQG
Chain of PD-1 on PD-1+ NFAT Jurkat cells (Promega, JA2191) (Q15116 25-288 limits assumed): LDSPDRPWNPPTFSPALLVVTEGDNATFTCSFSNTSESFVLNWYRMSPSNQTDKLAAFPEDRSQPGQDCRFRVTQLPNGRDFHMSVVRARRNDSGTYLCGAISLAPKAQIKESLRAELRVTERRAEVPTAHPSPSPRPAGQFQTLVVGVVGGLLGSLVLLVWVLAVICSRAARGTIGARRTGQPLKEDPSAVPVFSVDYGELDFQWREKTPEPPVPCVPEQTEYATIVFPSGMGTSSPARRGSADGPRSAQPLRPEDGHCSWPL
T10 sequence (Q15116 25-167 limits assumed): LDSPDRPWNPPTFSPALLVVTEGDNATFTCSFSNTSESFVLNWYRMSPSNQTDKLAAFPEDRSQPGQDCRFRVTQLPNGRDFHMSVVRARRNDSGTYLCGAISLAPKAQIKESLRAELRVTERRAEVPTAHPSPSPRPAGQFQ

B1: 1245_P02_G04 (antibody, IgG1, V domains shown)
VH: QVQLQQSGPGLVKPSQTLSLTCAISGDSVSSKSAAWNWIRQSPSRGLEWLGRTYYRSKWSTDYAASVKSRITINPDTSKNQLSLQLNSVTPEDTAVYYCARTWSGYVDVWGQGTLVTVSS
VL: DIQMTQSPPALSASVGDRVTITCRASQDINDWLAWYQHKPGKAPKLLIYDASSLESGVPSRFSGSGSGTEFTLTISSLQPDDFATYYCQQSYSTPQVTFGQGTRLEIK
notes: also called ADT1-4; parental ADT1-4
[1]
  EC50: 108 nM
[2]
  EC50 (read off the curve): ~0.07 µg/mL
[3]
  IC50 TCR DR (no THP-1): 38.2 nM
  IC90 TCR DR (noTHP-1): 72.4 nM
[4]
  TCR downregulation IC50, soluble assay, added in solution: 38.3 nM
[5]
  binding result: no binding (tested: about 300 nM)
[6]
  ELISA signal (heat map): 196
[7]
  Kd: 149 nM
[8]
  Kd: 47 nM
[9]
  Kd: 397 nM
[10]
  ELISA signal (heat map): 1200
[11]
  EC50: 576 nM
[12]
  DELFIA signal at 100 nM L1: 5900 fluorescence units

B2: ADT1-4-2 (L74S) (antibody, V domains shown)
VH: EVQLQQSGPGLVKPSQTLSLTCAISGDSVSSKSAAWNWIRQSPSRGLEWLGRTYYRSKWSTDYAASVKSRITINPDTSKNQLSLQLNSVTPEDTAVYYCARTWVGYVDRWGQGTLVTVSS
VL: DIQMTQSPPALSASVGDRVTITCRASQDINDWLAWYQHKPGKAPKLLIYDASSLESGVPSRFSGSGSGTEFTLTISSLQPDDFATYYCQQKYSAPQVTFGQGTRLEIKR
notes: Captured on Protein A
[8]
  Kd: 4 nM
[9]
  Kd: 61 nM
[13]
  fold reduction in affinity against ADT1-4-2: ~11 fold
[14]
  fold reduction in affinity against ADT1-4-2: ~23 fold

B3: ADT1-4-1 (antibody, IgG1, V domains shown)
VH: EVQLQQSGPGLVKPSQTLSLTCAISGDSVSSKSAAWNWIRQSPSRGLEWLGRTYYRSKWSTDYAASVKSRITINPDTSKNQLSLQLNSVTPEDTAVYYCARTWVGYADVWGQGTLVTVSS
VL: DIQMTQSPPALSASVGDRVTITCRASQDINDWLAWYQHKPGKAPKLLIYDASSLESGVPLRFSGSGSGTEFTLTISSLQPDDFATYYCQQRYSTPIVTFGQGTRLEIK
notes: IgG1
[15]
  Kd: 0.08 nM
[16]
  Kd: 0.08 nM

B4: Anti-Vδ1xanti-OX40 (ADT1-4-2xpogalizumab) bispecific antibody (bispecific antibody, human IgG1, kappa)
light: DIQMTQSPPALSASVGDRVTITCRASQDINDWLAWYQHKPGKAPKLLIYDASSLESGVPLRFSGSGSGTEFTLTISSLQPDDFATYYCQQKYSAPQVTFGQGTRLEIKRTVAAPSVFIFPPSDEQLKSGTASVVCLLNNFYPREAKVQWKVDNALQSGNSQESVTEQDSKDSTYSLSSTLTLSKADYEKHKVYACEVTHQGLSSPVTKSFNRGEC
heavy: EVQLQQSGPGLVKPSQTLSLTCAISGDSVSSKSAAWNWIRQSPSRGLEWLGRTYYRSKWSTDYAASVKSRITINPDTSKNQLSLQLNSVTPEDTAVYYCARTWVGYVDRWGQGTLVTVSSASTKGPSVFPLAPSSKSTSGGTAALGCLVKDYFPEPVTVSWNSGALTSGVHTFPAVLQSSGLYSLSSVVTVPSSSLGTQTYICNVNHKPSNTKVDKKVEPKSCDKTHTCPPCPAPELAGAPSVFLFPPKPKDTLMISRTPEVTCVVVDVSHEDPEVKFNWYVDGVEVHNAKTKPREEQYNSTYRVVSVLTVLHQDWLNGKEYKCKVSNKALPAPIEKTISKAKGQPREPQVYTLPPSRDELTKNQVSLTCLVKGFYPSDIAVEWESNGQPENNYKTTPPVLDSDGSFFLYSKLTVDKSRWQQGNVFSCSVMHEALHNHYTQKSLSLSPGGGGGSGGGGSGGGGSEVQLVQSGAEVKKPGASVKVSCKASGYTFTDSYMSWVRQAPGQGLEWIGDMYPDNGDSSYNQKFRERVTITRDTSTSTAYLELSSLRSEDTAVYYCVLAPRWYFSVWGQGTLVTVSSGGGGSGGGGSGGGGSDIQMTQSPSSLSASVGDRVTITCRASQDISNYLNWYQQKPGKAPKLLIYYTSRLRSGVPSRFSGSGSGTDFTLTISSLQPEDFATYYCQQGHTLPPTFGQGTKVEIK
notes: also called ADT1-4-2xOX40; Vδ1-OX40 bispecific antibody
[17]
  EC50 (read off the curve): ~0.3 nM
[18]
  EC50 (read off the curve): ~2 nM
[19]
  Kd: 1.2 nM
Recombinant human OX40
  Kd: 1.63 nM
[20]
  EC50 (read off the curve), OX40+ NFAT Jurkat activation assay: ~20 nM

B5: Anti-Vδ1xMSLN (ADT1-4-2xMSLN) bispecific antibody (bispecific antibody, human IgG1, kappa)
light: DIQMTQSPPALSASVGDRVTITCRASQDINDWLAWYQHKPGKAPKLLIYDASSLESGVPLRFSGSGSGTEFTLTISSLQPDDFATYYCQQKYSAPQVTFGQGTRLEIKRTVAAPSVFIFPPSDEQLKSGTASVVCLLNNFYPREAKVQWKVDNALQSGNSQESVTEQDSKDSTYSLSSTLTLSKADYEKHKVYACEVTHQGLSSPVTKSFNRGEC
heavy: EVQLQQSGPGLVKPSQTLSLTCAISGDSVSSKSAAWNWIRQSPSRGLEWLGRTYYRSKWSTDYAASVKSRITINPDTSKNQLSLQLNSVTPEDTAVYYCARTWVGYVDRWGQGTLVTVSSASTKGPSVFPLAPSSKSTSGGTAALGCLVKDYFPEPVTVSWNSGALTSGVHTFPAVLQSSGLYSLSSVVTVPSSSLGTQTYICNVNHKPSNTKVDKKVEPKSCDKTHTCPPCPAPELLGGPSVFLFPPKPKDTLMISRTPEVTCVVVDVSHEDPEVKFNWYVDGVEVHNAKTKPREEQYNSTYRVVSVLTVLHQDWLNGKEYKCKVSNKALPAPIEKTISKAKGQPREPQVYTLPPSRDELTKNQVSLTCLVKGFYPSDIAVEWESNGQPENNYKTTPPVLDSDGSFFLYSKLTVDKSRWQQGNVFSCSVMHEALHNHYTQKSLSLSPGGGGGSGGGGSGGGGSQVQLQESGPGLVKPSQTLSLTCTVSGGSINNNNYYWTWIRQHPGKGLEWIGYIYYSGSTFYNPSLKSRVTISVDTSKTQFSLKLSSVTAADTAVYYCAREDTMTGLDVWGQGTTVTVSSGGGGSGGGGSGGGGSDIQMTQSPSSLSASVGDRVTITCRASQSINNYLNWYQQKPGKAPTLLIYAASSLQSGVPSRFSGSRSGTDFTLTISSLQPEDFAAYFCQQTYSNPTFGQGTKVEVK
notes: also called ADT1-4-2 × MSLN; MSLN-Vδ1 bispecific antibody
Recombinant human MSLN
  Kd: 0.87 nM
[21]
  Kd: 0.026 nM
[22]
  EC50 (read off the curve): ~0.5 nM

B6: Anti-Vδ1xFAPα (ADT1-4-2x sibrotuzumab) bispecific antibody (bispecific antibody, human IgG1, kappa)
light: DIQMTQSPPALSASVGDRVTITCRASQDINDWLAWYQHKPGKAPKLLIYDASSLESGVPLRFSGSGSGTEFTLTISSLQPDDFATYYCQQKYSAPQVTFGQGTRLEIKRTVAAPSVFIFPPSDEQLKSGTASVVCLLNNFYPREAKVQWKVDNALQSGNSQESVTEQDSKDSTYSLSSTLTLSKADYEKHKVYACEVTHQGLSSPVTKSFNRGEC
heavy: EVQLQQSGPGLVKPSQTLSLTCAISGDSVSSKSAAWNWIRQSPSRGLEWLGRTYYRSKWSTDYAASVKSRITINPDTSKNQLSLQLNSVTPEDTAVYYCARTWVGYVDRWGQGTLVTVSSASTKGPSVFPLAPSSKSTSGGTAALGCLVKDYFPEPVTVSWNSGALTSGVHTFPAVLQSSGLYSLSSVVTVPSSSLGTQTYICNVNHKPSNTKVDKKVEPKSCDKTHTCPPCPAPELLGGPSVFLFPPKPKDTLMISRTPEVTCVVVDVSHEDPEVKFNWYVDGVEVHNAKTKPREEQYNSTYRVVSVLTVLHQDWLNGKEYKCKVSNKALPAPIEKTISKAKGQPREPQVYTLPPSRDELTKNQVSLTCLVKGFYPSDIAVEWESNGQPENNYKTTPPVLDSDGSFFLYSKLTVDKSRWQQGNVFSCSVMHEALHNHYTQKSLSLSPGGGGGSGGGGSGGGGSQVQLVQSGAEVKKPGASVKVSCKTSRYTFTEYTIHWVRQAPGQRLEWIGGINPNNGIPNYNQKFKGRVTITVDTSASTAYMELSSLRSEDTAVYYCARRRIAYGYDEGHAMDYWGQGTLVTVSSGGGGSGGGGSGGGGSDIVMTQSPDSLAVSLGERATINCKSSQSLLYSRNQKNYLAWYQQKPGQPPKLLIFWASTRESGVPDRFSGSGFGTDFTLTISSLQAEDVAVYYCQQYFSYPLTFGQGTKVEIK
notes: also called ADT1-4-2 × FAP alpha; Vδ1-FAPα bispecific antibody
[23]
  EC50 (read off the curve): ~0.5 nM
[24]
  Kd: 0.26 nM
Recombinant human FAPα
  Kd: 1.4 nM
[25]
  EC50 (read off the curve): ~1 nM

B7: Anti-Vδ1xAnti-PD-1 (ADT1-4-2xpembrolizumab) bispecific antibody (bispecific antibody, human IgG1, kappa)
light: EIVLTQSPATLSLSPGERATLSCRASKGVSTSGYSYLHWYQQKPGQAPRLLIYLASYLESGVPARFSGSGSGTDFTLTISSLEPEDFAVYYCQHSRDLPLTFGGGTKVEIKRTVAAPSVFIFPPSDEQLKSGTASVVCLLNNFYPREAKVQWKVDNALQSGNSQESVTEQDSKDSTYSLSSTLTLSKADYEKHKVYACEVTHQGLSSPVTKSFNRGEC
heavy: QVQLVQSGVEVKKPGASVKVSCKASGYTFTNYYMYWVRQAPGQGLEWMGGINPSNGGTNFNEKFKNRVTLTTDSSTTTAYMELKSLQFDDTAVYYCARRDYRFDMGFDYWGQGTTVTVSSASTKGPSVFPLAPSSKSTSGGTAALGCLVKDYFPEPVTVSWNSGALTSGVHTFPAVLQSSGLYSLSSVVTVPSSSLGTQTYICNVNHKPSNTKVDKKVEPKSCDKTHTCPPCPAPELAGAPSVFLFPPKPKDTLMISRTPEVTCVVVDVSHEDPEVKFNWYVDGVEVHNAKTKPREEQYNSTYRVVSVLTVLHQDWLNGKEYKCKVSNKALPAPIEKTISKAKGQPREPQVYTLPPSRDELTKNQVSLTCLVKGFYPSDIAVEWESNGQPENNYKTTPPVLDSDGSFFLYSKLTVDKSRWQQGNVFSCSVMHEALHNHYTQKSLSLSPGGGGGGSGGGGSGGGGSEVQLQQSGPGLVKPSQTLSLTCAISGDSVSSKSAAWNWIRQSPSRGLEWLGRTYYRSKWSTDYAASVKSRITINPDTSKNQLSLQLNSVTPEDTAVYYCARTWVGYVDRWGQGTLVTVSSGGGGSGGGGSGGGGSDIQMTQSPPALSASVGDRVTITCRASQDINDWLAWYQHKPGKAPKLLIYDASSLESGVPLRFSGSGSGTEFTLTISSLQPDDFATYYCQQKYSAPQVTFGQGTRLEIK
notes: also called PD-1xADT1-4-2; Vδ1-PD-1 bispecific antibody
Recombinant human PD-1
  Kd: 0.9 nM
[26]
  EC50 (read off the curve), PD-1/PD-L1 blockade reporter assay: ~1 nM
[27]
  Kd: 1.5 nM
[28]
  EC50 (read off the curve): ~0.7 nM

Reference: patent publication US20230028110A1 (ADAPTATE BIOTHERAPEUTICS, published 2023)
